This note sets out measurements from publication doi:10.1101/2025.07.10.664163.

Broadly, the Kd is the constant that tells how readily two partners part at equilibrium. Low readings indicate a tighter complex, high ones a looser complex.

Assay [1] deals with Alexa-488 maleimide-labeled α-syn^ΔCTD (Δ104-140, A18C) (human) (UniProt P37840). In words: fluorescence polarisation. A general note: Polarisation of emitted light reports the rotation of a fluorescent probe.
Assay [2] addresses Alexa-488 maleimide-labeled α-synuclein (G132C) (human) (UniProt P37840). In words: fluorescence polarisation.

“SARS-CoV-2 nucleocapsid protein with the CTD deleted (NP^ΔCTD) (domain or fragment)” yielded a fold rise of Kd on removing the CTD of α-syn in assay [1] of 3.5 fold. In addition, the Kd in assay [2] is 1850 nM.

“SARS-CoV-2 nucleocapsid protein with the NTD deleted (NP^ΔNTD) (domain or fragment)” displayed a fold rise of Kd on removing the CTD of α-syn in assay [1] of 4 fold. Also, the Kd in assay [2] turned out to be 3670 nM.
